The target of assay [1] is SLAMF9 protein (UniProt Q96A28 19-236, limits assumed). Nature of the assay: phage clone on SLAMF9 protein.
Assay [2] has as its target T1, FcRL1, overexpressed on 3T3 cells (UniProt Q96LA6 17-429, limits assumed).
T1 construct: whole, on cells
T1 sequence (looked up): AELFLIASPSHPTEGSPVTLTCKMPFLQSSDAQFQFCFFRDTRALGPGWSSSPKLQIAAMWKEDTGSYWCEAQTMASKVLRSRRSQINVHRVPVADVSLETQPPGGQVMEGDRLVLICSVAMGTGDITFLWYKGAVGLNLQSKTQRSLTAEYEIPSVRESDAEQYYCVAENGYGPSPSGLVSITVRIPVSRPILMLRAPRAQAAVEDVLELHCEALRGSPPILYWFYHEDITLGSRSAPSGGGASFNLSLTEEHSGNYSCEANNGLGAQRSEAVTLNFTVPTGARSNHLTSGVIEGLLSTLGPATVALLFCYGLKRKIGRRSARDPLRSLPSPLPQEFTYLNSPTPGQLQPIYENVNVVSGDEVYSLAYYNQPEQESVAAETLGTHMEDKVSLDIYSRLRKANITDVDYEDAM
The experiment in a line: phage clone on 3T3-FcRL1 cells.

In assay [3] the target is T2, FcRL2, overexpressed on 3T3 cells (UniProt Q96LA5 20-508, limits assumed).
T2 construct: whole, on cells
T2 sequence (looked up): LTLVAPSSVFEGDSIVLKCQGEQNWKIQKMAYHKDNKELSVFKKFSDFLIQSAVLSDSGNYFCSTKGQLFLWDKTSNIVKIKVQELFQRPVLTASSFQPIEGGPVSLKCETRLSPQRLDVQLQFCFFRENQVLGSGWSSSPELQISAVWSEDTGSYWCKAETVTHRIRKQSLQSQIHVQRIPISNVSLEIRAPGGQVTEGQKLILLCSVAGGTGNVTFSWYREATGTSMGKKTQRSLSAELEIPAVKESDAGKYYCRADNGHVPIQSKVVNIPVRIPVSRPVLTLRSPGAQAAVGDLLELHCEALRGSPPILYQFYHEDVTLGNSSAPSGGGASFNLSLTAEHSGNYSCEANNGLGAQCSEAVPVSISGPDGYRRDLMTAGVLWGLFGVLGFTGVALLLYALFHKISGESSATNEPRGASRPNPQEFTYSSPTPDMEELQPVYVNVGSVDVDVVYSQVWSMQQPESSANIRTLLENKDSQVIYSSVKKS
The experiment in a line: phage clone on 3T3-FcRL2 cells.

Assay [4] has as its target T3, FcRL3, overexpressed on 3T3 cells (UniProt Q96P31 18-734, limits assumed).
T3 construct: whole, on cells
T3 sequence (looked up): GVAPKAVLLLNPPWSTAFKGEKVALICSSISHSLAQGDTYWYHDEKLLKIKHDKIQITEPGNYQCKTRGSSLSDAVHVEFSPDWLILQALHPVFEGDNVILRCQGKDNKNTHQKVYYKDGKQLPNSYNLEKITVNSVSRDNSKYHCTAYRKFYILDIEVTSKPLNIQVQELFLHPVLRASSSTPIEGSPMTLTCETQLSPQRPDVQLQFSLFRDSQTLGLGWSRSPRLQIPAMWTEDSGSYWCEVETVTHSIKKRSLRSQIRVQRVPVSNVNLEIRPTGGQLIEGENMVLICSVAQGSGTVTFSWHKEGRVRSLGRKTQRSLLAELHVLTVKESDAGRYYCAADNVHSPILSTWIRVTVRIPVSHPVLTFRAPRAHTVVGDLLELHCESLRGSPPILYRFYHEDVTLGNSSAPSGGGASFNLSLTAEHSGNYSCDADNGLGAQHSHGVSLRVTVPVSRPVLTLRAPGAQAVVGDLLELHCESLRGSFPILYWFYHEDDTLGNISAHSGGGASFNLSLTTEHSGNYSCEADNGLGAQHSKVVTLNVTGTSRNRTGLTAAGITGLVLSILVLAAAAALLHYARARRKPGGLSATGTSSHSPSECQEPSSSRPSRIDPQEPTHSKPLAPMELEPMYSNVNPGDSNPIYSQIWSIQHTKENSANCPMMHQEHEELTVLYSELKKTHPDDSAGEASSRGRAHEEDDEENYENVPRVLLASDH
Nature of the assay: phage clone on 3T3-FcRL3 cells.

Assay [5] addresses T4, Fc Receptor-like 5 (FcRL5), full length, overexpressed on 3T3 or Raji cells (human, UniProt Q96RD9 16-977).
T4 construct: also called 3T3-FcRL5
T4 sequence: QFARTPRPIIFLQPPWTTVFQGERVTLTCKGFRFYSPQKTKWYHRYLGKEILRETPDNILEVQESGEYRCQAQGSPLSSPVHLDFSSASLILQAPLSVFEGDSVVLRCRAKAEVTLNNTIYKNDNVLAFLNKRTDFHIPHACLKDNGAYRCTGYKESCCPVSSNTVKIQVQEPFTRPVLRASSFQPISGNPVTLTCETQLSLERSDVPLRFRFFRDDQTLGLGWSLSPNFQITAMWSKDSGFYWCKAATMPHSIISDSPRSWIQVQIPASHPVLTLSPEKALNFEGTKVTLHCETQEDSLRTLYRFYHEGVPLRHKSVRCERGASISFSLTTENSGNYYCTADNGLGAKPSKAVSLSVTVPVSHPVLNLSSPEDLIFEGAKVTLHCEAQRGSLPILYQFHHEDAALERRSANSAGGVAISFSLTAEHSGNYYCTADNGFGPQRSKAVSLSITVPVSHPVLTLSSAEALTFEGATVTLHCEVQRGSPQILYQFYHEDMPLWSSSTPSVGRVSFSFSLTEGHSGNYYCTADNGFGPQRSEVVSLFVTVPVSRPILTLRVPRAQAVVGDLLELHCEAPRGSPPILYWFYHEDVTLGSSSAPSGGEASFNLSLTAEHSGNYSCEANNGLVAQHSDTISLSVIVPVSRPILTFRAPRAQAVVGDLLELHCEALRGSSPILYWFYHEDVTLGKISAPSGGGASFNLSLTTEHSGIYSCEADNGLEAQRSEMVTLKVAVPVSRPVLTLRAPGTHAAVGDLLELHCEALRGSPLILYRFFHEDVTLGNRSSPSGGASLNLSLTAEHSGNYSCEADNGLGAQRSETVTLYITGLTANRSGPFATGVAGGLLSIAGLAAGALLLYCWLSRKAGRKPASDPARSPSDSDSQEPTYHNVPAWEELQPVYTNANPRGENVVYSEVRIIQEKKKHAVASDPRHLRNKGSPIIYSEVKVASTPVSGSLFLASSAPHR
Nature of the assay: phage clone screening on cells. The method in brief: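 scFv phage clones were incubated with live 3T3 cells overexpressing full-length FcRL5, then detected with mouse anti-M13 mAb and PE-anti-mouse Ig by flow cytometry. 3T3 cells expressing FcRL1, 2, 3, 4 or 6 served as negative-control targets.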

Chain of SLAMF9 protein (Q96A28 19-236 limits assumed): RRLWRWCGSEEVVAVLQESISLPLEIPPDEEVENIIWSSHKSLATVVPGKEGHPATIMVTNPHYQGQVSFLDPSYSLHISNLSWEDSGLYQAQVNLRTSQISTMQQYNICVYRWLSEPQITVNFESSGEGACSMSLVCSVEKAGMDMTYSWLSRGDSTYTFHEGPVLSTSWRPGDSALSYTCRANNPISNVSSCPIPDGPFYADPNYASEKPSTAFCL

B1: ET200-106 (scFv)
scFv: SYELTQPPAASGTPGQRVTISCSGGVSNIGSGALNWYQQLPGTAPKLLIYSYNQRPSGVSDRFSGSRSATSASLAISGLQSEDEADYYCATWDDSVNGWVFGGGTKLTVLGSRGGGGSGGGGSGGGGSLEMAEVQLVESGAEVKKPGDSVKVSCKPSGYNFLNYGINWVRQAPGQGLEWMGWISTYTGNTNYAQKLQGRVTFTTDTSTSTAYMEMRSLRSDDTAVYYCARQQGGGWYDVWGQGTLVTVSSTSGQAGQHHHHHHGAYPYDVPDYAS
notes: screened as phage clone; entry is VL-linker-VH-His tag-HA tag
Turning to B1, the binding result is “no binding” in assay [1]; “no binding” in assay [2]; “no binding” in assay [3]; “no binding” in assay [4]; “binds” in assay [5].

B2: ET200-109 (scFv)
scFv: LPVLTQPPSASATPGQRVTISCSGTTSNIGSNTVHWYQQLPGTAPKLLIYNNNQRPSGVPDRFSGSKSGTSASLAISGLRSEDEATYSCATWDDSLSGVVFGGGTKLTVLGSRGGGGSGGGGSGGGGSLEMAEVQLVQSGAEVKKPGSSVKVSCKASGGTFSSYAISWVRQAPGQGLEWMGGIIPIFGTANYAQKFQGRVTITADESTSTAYMELSSLRSEDTAVYYCARDPAYGDYEYDAFDIWGQGTMVTVSSTSGQAGQHHHHHHGAYPYDVPDYAS
notes: as for B1
In the case of B2, the binding result in assay [1] is “no binding”; in assay [2], “no binding”; in assay [3] it was “no binding”; in assay [4] it was “no binding”; in assay [5] it was “binds”.

B3: ET200-103 (scFv)
scFv: QAVLTQPHSVSESPGKTVTISCTRSSGSIASNYVQWYQQRPGSAPTTVIYEDNQRPSGVPDRFSGSIDSSSNSASLTISGLKTEDEADYYCQSYDSTITVFGGGTKLTVLGSRGGGGSGGGGSGGGGSLEMAQVQLVQSGAEVKKPGSSVKVSCKASGGTFSSYAISWVRQAPGQGLEWMGGIIPIFGTANYAQKFQGRVTITADESTSTAYMELSSLRSEDTAVYYCAGEGYYDSSGYSNGDAFDIWGQGTMVTVSSTSGQAGQHHHHHHGAYPYDVPDYAS
notes: as for B1
B3: the binding result in assay [1] is “no binding”; in assay [2], “no binding”; in assay [3] it was “no binding”; in assay [4], “no binding”; in assay [5], “binds”.

B4: ET200-108 (scFv)
scFv: QSVLTQPPSVSAPPGQKVTISCSGSSSNIGNNYVSWYQQFPGTAPKLLIYDNNKRPSGISDRFSGSKSGTSATLGIAGLQTGDEADYYCGTWDTSLSGFYVFGSGTKVTVLGSRGGGGSGGGGSGGGGSLEMAEVQLVQSGAEVKKPGASVKVSCKASGYTFTSYTISWVRQAPGQGLEWMGWISTYNGLTNYAQNLQGRVTMTTDTFTTTAYMELRSLRSDDTAVYYCVREGSPDYGDFASFDYWGQGTLVTVSSTSGQAGQHHHHHHGAYPYDVPDYAS
notes: as for B1
Take B4: the binding result in assay [1] is listed as “no binding”; in assay [2], “no binding”; in assay [3], “no binding”; in assay [4], “no binding”; in assay [5] it was “binds”.

B5: ET200-107 (scFv)
scFv: QSVVTQPPSVSAAPGEKVTISCSGSNFNVGNNDVSWYQQLPGAAPKLLIYDNNKRPSGIPDRFSGSKSGTSATLDITGLHSDDEADYYCGTWDSSLNTGGVFGTGTKVTVLGSRGGGGSGGGGSGGGGSLEMAEVQLVQSGAEVKKPGASVKVSCKASGYTFTSYTISWVRQAPGQGLEWMGWISTYNGLTNYAQNLQGRVTMTTDTFTTTAYMELRSLRSDDTAVYYCVREGSPDYGDFASFDYWGQGTLVTVSSTSGQAGQHHHHHHGAYPYDVPDYAS
notes: as for B1
B5: the binding result is on record as “no binding” in assay [1]; “no binding” in assay [2]; “no binding” in assay [3]; “no binding” in assay [4]; “binds” in assay [5].

B6: ET200-007 (scFv)
scFv: SYVLTQPLSVSVAPGKTARITCGGNNIGSKTVHWYQQKPGQAPVLVIYYDSDRPSGIPERFSGSNSGNTATLTISRVEAGDEADYYCQVWDSSSDHRVFGGGTKLTVLGSRGGGGSGGGGSGGGGSLEMAQVQLQESGPGLVKPSETLSLTCNVSGYSISSGYFWGWIRQPPGKGLEWIGSIYHSRSTYYNPSLKSRVTISVDTSKNQFSLKLNSVTAADTAVYYCARGYGYFDYWGQGTLVTVSSTSGQAGQHHHHHHGAYPYDVPDYAS
notes: as for B1
For B6, the binding result in assay [1] is on record as “no binding”; in assay [2], “no binding”; in assay [3], “no binding”; in assay [4] it was “no binding”; in assay [5], “binds”.

B7: ET200-105 (scFv)
scFv: SYVLTQPPSVSVSPGQTASITCSGDRLTNKYVSWYQQKPGQSPVLVIYEDAKRPSGIPARFSGSNSGNTATLTISGTQAMDESEYYCQAWDSSVVVFGGGTKLTVLGSRGGGGSGGGGSGGGGSLEMAEVQLVESGGGLVQPGRSLRLSCAASGFTFDDYAMHWVRQAPGKGLEWVSGISWNSGSIGYADSVKGRFTISRDNAKNSLYLQMNSLRDEDTALYYCAKDRGGGVIVKDAFDIWGQGTMVTVSSTSGQAGQHHHHHHGAYPYDVPDYAS
notes: as for B1
On to B7, for which the binding result in assay [1] is “no binding”; in assay [2] it was “no binding”; in assay [3], “no binding”; in assay [4] it was “no binding”; in assay [5] it was “binds”.
